We go through one molecule from patent US20050245453A1 (MOUNT SINAI SCHOOL OF MEDICINE OF NEW YORK UNIVERSITY, published 2005).

In the experiment the target is Presenilin-1 (PS1) (human, UniProt P49768 1-467). Nature of the experiment: co-immunoprecipitation with anti-PS1/NTF R222 from transfected A431D cell extracts, Western blot with C36. On the procedure: Immunoprecipitations (IPs), immunoblotting, immunofluorescence and confocal microscopy. For WB analysis of cell extracts, cells were washed with PBS and then solubilized in RIPA buffer. For IPs cells were solubilized in Hepes buffer (25 mM Hepes [pH 7.4], 150 mM NaCl, 1× Complete protease inhibitor cocktail, Roche) containing 1% digitonin (IPs with I-R222 and PI-R222 antibodies) or 1% Triton X-100 (IPs with β-catenin and desmoglein antibodies). Following centrifugation at 17,000×g for 10 min, supernatants (1 mg protein) were pre-cleared with protein A- or protein G-agarose (Pierce) for 2 hours. Supernatants were then incubated with antibodies overnight at 4° C. and treated for 2 hours with protein A-agarose (polyclonal antibodies) or with protein G-agarose (monoclonal antibodies). IPs were washed with Hepes buffer containing either 1% digitonin or 1% Triton X-100 and analyzed by SDS-PAGE. Immunofluorescence and confocal microscopy was performed as described by Georgakopoulos et al., (1999). Briefly, cells were plated on 22×22 mm collagen-coated glass coverslips, fixed in cold methanol for 10 min at −20° C. […]

B1: E-cadherin mutant GGG759-761AAA (receptor)
chain: DWVIPPISCPENEKGPFPKNLVQIKSNKDKEGKVFYSITGQGADTPPVGVFIIERETGWLKVTEPLDRERIATYTLFSHAVSSNGNAVEDPMEILITVTDQNDNKPEFTQEVFKGSVMEGALPGTSVMEVTATDADDDVNTYNAAIAYTILSQDPELPDKNMFTINRNTGVISVVTTGLDRESFPTYTLVVQAADLQGEGLSTTATAVITVTDTNDNPPIFNPTTYKGQVPENEANVVITTLKVTDADAPNTPAWEAVYTILNDDGGQFVVTTNPVNNDGILKTAKGLDFEAKQQYILHVAVTNVVPFEVSLTTSTATVTVDVLDVNEAPIFVPPEKRVEVSEDFGVGQEITSYTAQEPDTFMEQKITYRIWRDTANWLEINPDTGAISTRAELDREDFEHVKNSTYTALIIATDNGSPVATGTGTLLLILSDVNDNAPIPEPRTIFFCERNPKPQVINIIDADLPPNTSPFTAELTHGASANWTIQYNDPTQESIILKPKMALEVGDYKINLKLMDNQNKDQVTTLEVSVCDCEGAAGVCRKAQPVEAGLQIPAILGILGGILALLILILLLLLFLRRRAVVKEPLLPPEDDTRDNVYYYDEEAAAEEDQDFDLSQLHRGLDARPEVTRNDVAPTLMSVPRYLPRPANPDEIGNFIDENLKAADTDPTAPPYDSLLVFDYEGSGSEAASLSSLNSSESDKDQDYDYLNEWGNRFKKLADMYGGGEDD
notes: whole, on cells; Numbering on the unprocessed human E-cadherin precursor; Assayed in cell extracts by co-immunoprecipitation; also called mutant E-cadherin
Turning to B1, the binding result is reported as “no binding”.
